From patent US20260049151A1 (SHENGHE CHINA BIOPHARMACEUTICAL, published 2026)
Like-named read-outs stand apart in the source and are kept apart here.

T1: Human-TNFR2-His (human, UniProt P20333 23-257)
T1 construct: Bought protein; also called human TNFR2 protein; TNFR2 protein; not shown: His tag
T1 sequence (looked up): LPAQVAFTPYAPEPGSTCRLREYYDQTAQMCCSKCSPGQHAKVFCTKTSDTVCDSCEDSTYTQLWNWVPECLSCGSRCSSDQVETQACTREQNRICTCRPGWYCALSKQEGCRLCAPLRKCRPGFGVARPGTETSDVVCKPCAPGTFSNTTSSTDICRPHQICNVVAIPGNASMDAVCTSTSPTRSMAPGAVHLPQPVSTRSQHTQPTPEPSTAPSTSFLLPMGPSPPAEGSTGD


Tests used:
Human-TNFR2-His [1] = biological target: T1, Human-TNFR2-His; assay: ELISA: Human-TNFR2-His coated (0.1 ug/mL), antibody titrated, goat anti-human IgG Fc detection (Example 2)
Description: (§1) Human-TNFR2-His (manufacturer: SINO, CAT: 10417-H08H, LOT: LC15NO0412) was diluted to 0.1 μg/mL with a coating solution (1×PBS, pH7.4), and coated in 96-well ELISA plate at 100 µL/well overnight at 4° C. The coating solution was poured off. Each well was washed with 1×PBST at 300 μL, washed 4 times with a plate washer, and patted dry on a flat paper. It was blocked with 3% skim milk powder at 300 μL/well, and incubated at 37° C. for 1 h. The blocking solution was poured off, washed 4 times with a plate washer, and patted dry on a flat paper. Negative control and positive control were set up. […] The positive control and antibody were diluted to 10 μg/mL with 3% skim milk powder as the starting concentration, and then diluted by 3-fold gradient (11 gradients in total), and a blank well was set up and only the diluent was added. It was incubated at 37° C. for 1 h at 100 μL/well. The liquid in the well was discarded, washed 4 times with a plate washer, and patted dry on a flat paper. Goat anti-human IgG Fc was diluted with 3% skim milk powder at 1:10000, and incubated at 37° C. for 1 h at 100 μL/well. It was washed 6 times with a plate washer, and patted dry on a flat paper. TMB color developing solution was added at 100 μL/well, and wrapped with aluminum foil. Color development was performed at 37° C. in the dark for 8 min. Termination solution 1M HCl was added to terminate the color development reaction at 100 μL/well. Readings were taken at 450 nm on an ELISA reader.

Human-TNFR2-His [2] = biological target: T1, Human-TNFR2-His; assay: BLI, antibody on AHC sensor, 100 nM TNFR2-His in solution
Description: The AHC sensor was soaked in 0.02% PBST (0.02% Tween 20, pH 7.4, 1×PBS) as a buffer for 600 s to remove the sucrose covering the sensor surface. The AHC sensor was equilibrated with 0.02% PBST (0.02% Tween 20, pH 7.4, 1×PBS) as a buffer for 60 s, the antibody in the sample plate was solidified for 300 s, and the secondary equilibration buffer was used for 180 s. 100 nM human-TNFR2-His (manufacturer: SINO, CAT: 10417-H08H, LOT: LC15NO0412) protein was bound to the antibody for 300 s and then dissociated for 600 s. After dissociation, 10 mM glycine (pH 2.0) was used as a regeneration buffer for 30 s. The sensor was regenerated with 10 mM glycine (pH 2.0).

Human 4-1BB His [3] = biological target: T2, Human 4-1BB His (human, UniProt Q07011 24-186); assay: ELISA: Human 4-1BB His coated (0.2 ug/mL), antibody titrated, goat anti-human IgG Fc detection (Example 3)
T2 construct: Bought protein; lots 198-2146F1-W6 and 2407c-214FF1-YC; also called human 4-1BB protein; 4-1BB protein; not shown: His tag
Description: (§2) Human 4-1BB His (manufacturer: Acro, CAT: 41B-H5258, LOT: 198-2146F1-W6) was diluted to 0.2 μg/mL with a coating solution (1×PBS, pH7.4), and coated in 96-well ELISA plate at 100 μL/well overnight at 4° C. The coating solution was poured off. Each well was washed with 1×PBST at 300 μL, washed 4 times with a plate washer, and patted dry on a flat paper. It was blocked with 3% skim milk powder at 300 μL/well, and incubated at 37° C. for 1 h. The blocking solution was poured off, washed 4 times with a plate washer, and patted dry on a flat paper. Negative control and positive control were set up. […] The variable region of the antibody sequence of the positive control consists of SEQ ID NO: 15 and SEQ ID NO: 19, with the addition of the constant region of human IgG1 (SEQ ID NO: 46 and SEQ ID NO: 47). The positive control and antibody were diluted to 10 μg/mL with 3% skim milk powder as the starting concentration, and then diluted by 3-fold gradient (11 gradients in total), and a blank well was set up and only the diluent was added. It was incubated at 37° C. for 1 h at 100 μL/well. The liquid in the well was discarded, washed 4 times with a plate washer, and patted dry on a flat paper. Goat anti-human IgG Fc was diluted with 3% skim milk powder at 1:20000, and incubated at 37° C. for 1 h at 100 μL/well. It was washed 6 times with a plate washer, and patted dry on a flat paper. TMB color developing solution was added at 100 μL/well, and wrapped with aluminum foil. Color development was performed at 37° C. in the dark for 8 min. Termination solution 1M HCl was added to terminate the color development reaction at 100 μL/well. Readings were taken at 450 nm on an ELISA reader.

Human 4-1BB His [4] = biological target: T2, Human 4-1BB His; assay: as above; remark: listed apart in the source
Human 4-1BB His [5] = biological target: T2, Human 4-1BB His; assay: as above; remark: listed apart in the source
Description: as §2

Human-TNFR2-His [6] = biological target: T1, Human-TNFR2-His; assay: ELISA: Human-TNFR2-His coated (0.1 ug/mL), antibody titrated, goat anti-human IgG Fc detection (Example 2); remark: listed apart in the source
Human-TNFR2-His [7] = biological target: T1, Human-TNFR2-His; assay: as above; remark: listed apart in the source
Description: as §1

Human 4-1BB His [8] = biological target: T2, Human 4-1BB His; assay: ELISA: Human 4-1BB His coated (0.2 ug/mL), antibody titrated, goat anti-human IgG Fc detection (Example 3); remark: listed apart in the source
Description: as §2

T2 sequence (Q07011 24-186 limits assumed): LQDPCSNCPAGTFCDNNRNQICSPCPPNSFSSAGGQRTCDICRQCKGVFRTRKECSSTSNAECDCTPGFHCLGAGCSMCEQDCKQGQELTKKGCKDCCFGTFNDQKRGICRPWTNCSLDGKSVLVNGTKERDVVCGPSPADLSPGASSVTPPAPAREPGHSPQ

Binder	EC50 (read off the curve) (Human-TNFR2-His [1])	Kd (Human-TNFR2-His [2])	koff (Human-TNFR2-His [2])	kon (Human-TNFR2-His [2])	EC50 (read off the curve) (Human 4-1BB His [3])	EC50 (read off the curve) (Human 4-1BB His [4])	EC50 (read off the curve) (Human 4-1BB His [5])	EC50 (read off the curve) (Human-TNFR2-His [6])	EC50 (read off the curve) (Human-TNFR2-His [7])	EC50 (read off the curve) (Human 4-1BB His [8])
Antibody E1 (bispecific antibody, human IgG1, kappa, IgG1 subtype; full-length TNFR2 antibody with 4-1BB scFv at the C-terminus of the heavy chains) light: DIVMTQSPATLSVSPGERATLSCKASQNVGSNVDWYQQKPGQSPRVLIYKASIRYTGIPARFSGSGSGTEFTLTISILQSEDFAVYFCMQSKSYPITFGQGTKLEIKRTVAAPSVFIFPPSDEQLKSGTASVVCLLNNFYPREAKVQWKVDNALQSGNSQESVTEQDSKDSTYSLSSTLTLSKADYEKHKVYACEVTHQGLSSPVTKSFNRGEC heavy: not shown	–	0.207 nM	8.04e-05 s⁻¹	389000 M⁻¹ s⁻¹	–	~0.2 nM	~0.2 nM	~0.09 nM	–	–
Antibody J1 (bispecific antibody, human IgG1, kappa, IgG1 subtype; full-length 4-1BB antibody with TNFR2 VHH at the C-terminus of the heavy chains) light: DIQMTQSPSSLSASLGDRVTISCSASQGISNYLNWYQQKPDGTVKLLIYYTSTLHSGVPSRFSGSGSGTDYTLTISSLQPEDIATYYCQQYSKLPWTFGGGTKLEIKRTVAAPSVFIFPPSDEQLKSGTASVVCLLNNFYPREAKVQWKVDNALQSGNSQESVTEQDSKDSTYSLSSTLTLSKADYEKHKVYACEVTHQGLSSPVTKSFNRGEC heavy: not shown	–	1.82 nM	0.000394 s⁻¹	217000 M⁻¹ s⁻¹	~0.09 nM	–	–	~0.2 nM	–	–

Other lines, results leading:

EC50 (read off the curve) (Human-TNFR2-His [1])	Kd (Human-TNFR2-His [2])	koff (Human-TNFR2-His [2])	kon (Human-TNFR2-His [2])	EC50 (read off the curve) (Human 4-1BB His [3])	EC50 (read off the curve) (Human 4-1BB His [4])	EC50 (read off the curve) (Human 4-1BB His [5])	EC50 (read off the curve) (Human-TNFR2-His [6])	EC50 (read off the curve) (Human-TNFR2-His [7])	EC50 (read off the curve) (Human 4-1BB His [8])	Binder
~0.08 nM	0.241 nM	6.64e-05 s⁻¹	276000 M⁻¹ s⁻¹	~0.06 nM	–	–	–	–	–	Antibody H (bispecific antibody, human IgG1, kappa, IgG1 subtype; full-length TNFR2 antibody with 4-1BB scFv at the N-terminus of the light chains) light: QVQLQESGPGLVKPSETLSLTCTVSGSSLTSYGVHWVRQPPGKCLEGLGVIWPGGSTNYNSALMSRVTISKDNSKSQVSLKMSSLTAADTAVYYCARVTGTWYFDVWGQGTTVTVSSGGGGSGGGGSGGGGSDIQMTQSPSSLSASLGDRVTISCSASQGISNYLNWYQQKPDGTVKLLIYYTSTLHSGVPSRFSGSGSGTDYTLTISSLQPEDIATYYCQQYSKLPWTFGCGTKLEIKGGGGSGGGGSGGGGSDIVMTQSPATLSVSPGERATLSCKASQNVGSNVDWYQQKPGQSPRVLIYKASIRYTGIPARFSGSGSGTEFTLTISILQSEDFAVYFCMQSKSYPITFGQGTKLEIKRTVAAPSVFIFPPSDEQLKSGTASVVCLLNNFYPREAKVQWKVDNALQSGNSQESVTEQDSKDSTYSLSSTLTLSKADYEKHKVYACEVTHQGLSSPVTKSFNRGEC heavy: not shown
–	1.28 nM	0.000394 s⁻¹	308000 M⁻¹ s⁻¹	–	–	–	–	~0.04 nM	~0.09 nM	Antibody M1 (bispecific antibody, human IgG1, kappa, IgG1 subtype; full-length 4-1BB antibody with TNFR2 VHH at the N-terminus of the heavy chains) light: DIQMTQSPSSLSASLGDRVTISCSASQGISNYLNWYQQKPDGTVKLLIYYTSTLHSGVPSRFSGSGSGTDYTLTISSLQPEDIATYYCQQYSKLPWTFGGGTKLEIKRTVAAPSVFIFPPSDEQLKSGTASVVCLLNNFYPREAKVQWKVDNALQSGNSQESVTEQDSKDSTYSLSSTLTLSKADYEKHKVYACEVTHQGLSSPVTKSFNRGEC heavy: not shown
